Patent publication US20190351049A1 (Regeneron, published 2019)

B1: H2aM15270N (antibody, V domains shown)
VH: EVQLLESGGGLEQPGGSLRLSCAASGFTFSSYAMIWVRQAPGKGLEWVSTISGSGVNTYYADSVKGRFTISRDNSKNTLHLQMNSLRAEDTAVYHCAKEGLDCANGVCYNYYGMDVWGQGTTVTVSS
VL: DIQMTQSPSSLSASVGDRVTITCRASQSINSFLNWYHQKPGKAPKFLIYSASNLQSGVPSRFSGSGSGTDFTLTISSLQPEDFSTYYCQQSYSIPLTFGGGTKVEIK
B2: H1H15253P2 (antibody, V domains shown)
VH: EVQLVESGGGLVQPGGSLRLSCVVSGFTSRNYAMSWVRQAPGKGLEWVSAISGSGGSTYYADSVKGRFTISRDNPKNTLYLQMNSLRAEDTALYYCAEDPGTSFDYWGQGTLVTVSS
VL: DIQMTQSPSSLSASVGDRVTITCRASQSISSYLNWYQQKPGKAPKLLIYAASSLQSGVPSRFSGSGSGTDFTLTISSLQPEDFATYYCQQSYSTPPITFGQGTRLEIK
B3: H1M15277N (antibody, V domains shown)
V domain 1: EVQLLESGGGLVQPGGSLRLSCAASGFTFSSYAMSWVRQAPGKGLEWVSAISGRGGNTYYADSVKGRFTISRDNSKNTLFLQMNTLRAEDTAVYYCAKDRGFGFFDIWGRGTLATVSS
V domain 2: not shown
B4: H1H15233P2 (antibody, V domains shown)
VH: EVQLVESGGGLVQPGGSLRLSCAASGFSFSSYGMNWVRQAPGKGLEWVSAISGRGGNTYSADSVKGRFTISRDNSKNTLFLQMNGLRAEDSAFYYCAKVGTYSSSSPFDYWGQGTLVTVSS
VL: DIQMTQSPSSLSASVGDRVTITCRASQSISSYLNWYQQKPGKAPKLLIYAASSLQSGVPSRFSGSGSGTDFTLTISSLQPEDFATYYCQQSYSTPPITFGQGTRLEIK
B5: H1H15203P (antibody, V domains shown)
VH: EVQLVESGGDLVQPGGSLRVSCAASGFTFSNYDMYWVRQAPGKGLEWVSVISGIGATTYYADSVKGRFTISRDNSKNTVFLQMNSLRAEDTAVYYCVKGGPIVATDYWGQGTLVTVSS
VL: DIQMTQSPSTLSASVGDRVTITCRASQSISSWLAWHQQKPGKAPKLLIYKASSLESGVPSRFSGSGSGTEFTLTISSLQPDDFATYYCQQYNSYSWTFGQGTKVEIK
B6: H1H15237P2 (antibody, V domains shown)
VH: EVQLVESGGGLVQPGGSLRLSCAASGFTSNSYPMSWVRQAPGKGLEWVSGISGRGGNTYYADSVKGRFTISRDNSKNTLYLQMNSLRVEDTAVYYCAETGTAFDYWGQGTLVTVSS
VL: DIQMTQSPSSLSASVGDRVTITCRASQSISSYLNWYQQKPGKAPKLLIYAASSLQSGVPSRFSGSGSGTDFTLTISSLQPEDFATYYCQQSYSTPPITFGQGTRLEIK
B7: H1H15231P2 (antibody, V domains shown)
VH: QLQLQESGPGLVKPSETLSLTCTVSGGSISSNTYYWGWIRQPPGKGLEWIGTIYYTGNTYYKSSLKSRVTISVDTSRNQFSLKLTSVTAADTAVYYCARQFADLNYVDYWGQGTLVTVSS
VL: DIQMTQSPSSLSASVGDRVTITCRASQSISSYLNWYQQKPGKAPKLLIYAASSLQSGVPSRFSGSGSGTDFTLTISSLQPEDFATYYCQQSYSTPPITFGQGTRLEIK
B8: H1H15228P2 (antibody, V domains shown)
VH: EVQLVESGGGLVQPGGSLRLSCAVFGFTFSGYAMSWVRQAPGKGLEWVSAISGGGGSTYYTDSVKGRFTISRDNSKNTLYLQMNSLRAEDTAVYYCASYWNNGMDVWGQGTTVTVSS
VL: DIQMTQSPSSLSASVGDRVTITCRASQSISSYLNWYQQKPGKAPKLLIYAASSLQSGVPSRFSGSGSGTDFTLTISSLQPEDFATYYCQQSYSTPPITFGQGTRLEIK
B9: H1H15208P (antibody, V domains shown)
VH: EVQLVESGGDLVQPGGSLRLSCTASGFTFSNYEMNWVRQAPEKGLDWVSFISSSGGAIYYADSVKGRFTISRDNAKNSLYLQMNSLRAEDSAIYFCARSDSGGNSRYWGQGTLVTVSS
VL: DIQMTQSPSSVSASVGDRVTVTCRASQDISNWLVWYQQKPGKAPKFLIYAASSLQSGVPSRFSGSGSGTDFTLTISSLQPEDFATYYCQQANSFPPTFGGGTKVEIK
B10: H1H15188P (antibody, V domains shown)
VH: QVQLVQSGAEVKKPGSSVKVSCKASGGSFSVYAISWVRQAPGQGLEWMGGIIPIFGTANYAQKFQDRFTITTDESTSTAYMELSSLRSEDTAMYYCAREGDIVVLPAGKGGMDVWGQGTTVTVSS
VL: DIVMTQSPLSLPVTPGEPASISCRSSQSLLHGNGYNYLDWYLQKPGQSPQLLIYLVSHRASGVPDRFSGSGSGTDFTLKISRVEAEDVGVYYCMQALQSPWTFGQGTKVEIK
B11: H2aM15281N (antibody, V domains shown)
VH: QVQLVQSGAEVKKPGSSVKVSCKASKDTFSSYAISWVRQAPGQGLEWMGGIIPFFGTTTYEQKFQGRVTITTDESTRTAYMELSSLRSEDSAVYYCARDRPCISSAGTRYHYCVMDVWGQGTTVTVSS
VL: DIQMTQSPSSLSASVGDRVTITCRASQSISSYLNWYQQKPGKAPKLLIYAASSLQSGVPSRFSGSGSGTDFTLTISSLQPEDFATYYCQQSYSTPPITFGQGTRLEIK
B12: H2aM15272N (antibody, V domains shown)
VH: QVRLVQSGAEVKKPGSSVKVSCKASGDTFSSYAISWVRQAPGQGLEWMGGIIPFFVTTTYAQNFQGRVTITTDESTRTAYMELSSLRSEDSAVYYCARDRPCISSAGTRYHYCVMDVWGQGTTVTVSS
VL: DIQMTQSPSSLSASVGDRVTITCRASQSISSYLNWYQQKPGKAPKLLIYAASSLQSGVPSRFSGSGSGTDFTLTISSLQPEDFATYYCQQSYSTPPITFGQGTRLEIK
B13: H1M15280N (antibody, V domains shown)
VH: EVQLLESGGGLVQPGGSLRLSCAASGFTFSSYAMSWVRQAPGKGLEWVSAISGSGSSTYYADSVKGRFTISRDNSKNTLFLQMNSLRAEDTAVYYCAEGGDVDFDYWGQGTLVTVSS
VL: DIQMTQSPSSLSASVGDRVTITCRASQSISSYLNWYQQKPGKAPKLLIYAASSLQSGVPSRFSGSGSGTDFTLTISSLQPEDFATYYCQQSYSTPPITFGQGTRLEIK
B14: H2aM15278N (antibody, V domains shown)
VH: QVQLVQSGAEVKKPGASVKVSCKASGYTFTSHGISWVRQAPGQGFEWMGWIGTYNSNTDYAQNFQGRVTMTTDTSTSTAYMELRNLRSDDTAVYYCARERGPYYGMDVWGQGTTVTVSS
VL: EIVLAQSPGTLSLSPGERATLSCRASQSVNSNYLAWYQQKPGQAPRLLIYGASSRATGIPDRFSGSGSGTDFTLTISRLEPEDFAVYYCQQYGNSLTFGPGTKVDFK
B15: H1H15215P (antibody, V domains shown)
VH: EVQLVESGGGLVQPGGSLRLSCAASGFTFSTYGMSWVRQAPGKGLEWVSTIIGSGYNTYYSDSVKGRFTMSRDNSKSTLYLQMNSLRAEDTAVYYCTKEGPIIGTTNWGQGTLVTVSS
VL: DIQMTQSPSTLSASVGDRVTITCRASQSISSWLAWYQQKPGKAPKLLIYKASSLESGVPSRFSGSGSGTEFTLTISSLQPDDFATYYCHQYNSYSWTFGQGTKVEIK
B16: H1H15249P2 (antibody, V domains shown)
VH: QLQLQESGPGLVKPSETLSLTCTVSGGSISNNNYYWGWIRQPPGKGLDWIGSIYYSGNTYYNPSLKSRVTISVDTSKNQFSLKMSSVTATDTALYYCARQGADHNWVDPWGQGTLVTVSS
VL: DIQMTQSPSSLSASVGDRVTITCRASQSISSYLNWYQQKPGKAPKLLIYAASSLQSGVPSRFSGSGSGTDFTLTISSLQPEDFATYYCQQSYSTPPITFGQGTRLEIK
B17: H1H15211P (antibody, V domains shown)
VH: EVQLVESGGGLVQPGGSLRLSCVVSGFTFSNYDMSWVRQAPGRGLEWVSAIRGSGFNTYYADSVKGRFTISRDNSKNTLYLQMNSLRAEDTAVYYCAKDGSIVSMDYWGQGTLVTVSS
VL: not shown
B18: H1H15177P (antibody, V domains shown)
VH: EVQLVESGGGLVQPGGSLRLSCSASGFTFSSYDMSWVRQAPGKGLEWVSAIRGSGHTTYYADSVKGRFTISRDNSKNTLYLEMNSLRAEDTAVYYCVKDGSIVGFDPWGQGTLVTVSS
VL: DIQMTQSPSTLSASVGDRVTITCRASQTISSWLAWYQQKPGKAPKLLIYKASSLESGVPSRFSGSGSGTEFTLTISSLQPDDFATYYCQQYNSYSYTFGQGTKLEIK

Legend:
MERS RBD-hFc [1] = target: T1, MERS RBD-hFc (MERS-CoV (isolate EMC/2012)); assay: SPR Biacore, captured mAb, 25 C
MERS RBD-hFc [2] = target: T1, MERS RBD-hFc; assay: SPR (Biacore), hybridoma supernatant antibody captured, MERS RBD-hFc as analyte
MERS RBD-hFc [3] = target: T1, MERS RBD-hFc; assay: SPR Biacore, captured mAb, 37 C
MERS RBD-hFc [4] = target: T1, MERS RBD-hFc; assay: ELISA on coated MERS RBD-hFc, hybridoma supernatant 1:50, absorbance at 450 nm

Binder | Kd (MERS RBD-hFc [1]) | koff (MERS RBD-hFc [1]) | kon (MERS RBD-hFc [1]) | t1/2 (MERS RBD-hFc [1]) | Kd (MERS RBD-hFc [2]) | t½ (MERS RBD-hFc [2]) | Kd (MERS RBD-hFc [3]) | koff (MERS RBD-hFc [3]) | kon (MERS RBD-hFc [3]) | t1/2 (MERS RBD-hFc [3]) | ELISA Binding (MERS RBD-hFc [4])
B1 | 0.776 nM | 0.000605 s⁻¹ | 779000 M⁻¹ s⁻¹ | 19 min | 1.79 nM | 17.3 min | 0.651 nM | 0.00114 s⁻¹ | 1.75e+06 M⁻¹ s⁻¹ | 10 min | 2.04
B2 | 0.348 nM | 0.000124 s⁻¹ | 356000 M⁻¹ s⁻¹ | 93 min | – | – | 1.44 nM | 0.000629 s⁻¹ | 436000 M⁻¹ s⁻¹ | 18 min | –
B3 | 0.346 nM | 0.00091 s⁻¹ | 2.63e+06 M⁻¹ s⁻¹ | 13 min | 1.72 nM | 11.1 min | 0.671 nM | 0.00218 s⁻¹ | 3.24e+06 M⁻¹ s⁻¹ | 5 min | 2.68
B4 | 0.229 nM | 4.56e-05 s⁻¹ | 199000 M⁻¹ s⁻¹ | 253 min | – | – | 0.127 nM | 4.74e-05 s⁻¹ | 374000 M⁻¹ s⁻¹ | 244 min | –
B5 | 0.273 nM | 0.000121 s⁻¹ | 443000 M⁻¹ s⁻¹ | 95 min | – | – | 0.645 nM | 0.000323 s⁻¹ | 501000 M⁻¹ s⁻¹ | 36 min | –
B6 | 0.274 nM | 0.00012 s⁻¹ | 439000 M⁻¹ s⁻¹ | 96 min | – | – | 0.797 nM | 0.000409 s⁻¹ | 514000 M⁻¹ s⁻¹ | 28 min | –
B7 | 0.116 nM | 7.44e-05 s⁻¹ | 639000 M⁻¹ s⁻¹ | 155 min | – | – | 0.139 nM | 9.19e-05 s⁻¹ | 659000 M⁻¹ s⁻¹ | 126 min | –
B8 | 0.418 nM | 0.000185 s⁻¹ | 443000 M⁻¹ s⁻¹ | 63 min | – | – | 0.975 nM | 0.000464 s⁻¹ | 476000 M⁻¹ s⁻¹ | 25 min | –
B9 | 0.553 nM | 0.000243 s⁻¹ | 439000 M⁻¹ s⁻¹ | 48 min | – | – | 1.01 nM | 0.000531 s⁻¹ | 525000 M⁻¹ s⁻¹ | 22 min | –
B10 | 0.0825 nM | 0.000122 s⁻¹ | 1.48e+06 M⁻¹ s⁻¹ | 95 min | – | – | 0.167 nM | 0.000265 s⁻¹ | 1.59e+06 M⁻¹ s⁻¹ | 44 min | –
B11 | 0.39 nM | 0.000818 s⁻¹ | 2.1e+06 M⁻¹ s⁻¹ | 14 min | 2.77 nM | 10.4 min | 0.213 nM | 0.000543 s⁻¹ | 2.55e+06 M⁻¹ s⁻¹ | 21 min | 2.54
B12 | 0.443 nM | 0.000733 s⁻¹ | 1.65e+06 M⁻¹ s⁻¹ | 16 min | 2.72 nM | 9.5 min | 0.316 nM | 0.000634 s⁻¹ | 2e+06 M⁻¹ s⁻¹ | 18 min | 2.52
B13 | 18.5 nM | 0.00525 s⁻¹ | 283000 M⁻¹ s⁻¹ | 2.2 min | 6.53 nM | 7.4 min | 13.2 nM | 0.00657 s⁻¹ | 497000 M⁻¹ s⁻¹ | 1.8 min | 2.75
B14 | 0.506 nM | 0.000873 s⁻¹ | 1.72e+06 M⁻¹ s⁻¹ | 13 min | 2.05 nM | 13.5 min | 0.519 nM | 0.00113 s⁻¹ | 2.17e+06 M⁻¹ s⁻¹ | 10 min | 2.42
B15 | 0.671 nM | 9.67e-05 s⁻¹ | 144000 M⁻¹ s⁻¹ | 119 min | – | – | 1.68 nM | 0.000233 s⁻¹ | 138000 M⁻¹ s⁻¹ | 50 min | –
B16 | 0.227 nM | 7.91e-05 s⁻¹ | 349000 M⁻¹ s⁻¹ | 146 min | – | – | 0.288 nM | 0.000127 s⁻¹ | 442000 M⁻¹ s⁻¹ | 91 min | –
B17 | 0.0775 nM | 8.72e-05 s⁻¹ | 1.13e+06 M⁻¹ s⁻¹ | 133 min | – | – | 0.194 nM | 0.00016 s⁻¹ | 827000 M⁻¹ s⁻¹ | 72 min | –
B18 | 0.39 nM | 0.000192 s⁻¹ | 493000 M⁻¹ s⁻¹ | 60 min | – | – | 1.23 nM | 0.000701 s⁻¹ | 568000 M⁻¹ s⁻¹ | 16 min | –
